T1: Recombinant human FcγRIIa R131, 6xHis-tagged (human, UniProt P12318 36-218, limits assumed)
T1 construct: Captured through its 6xHis tag
T1 sequence: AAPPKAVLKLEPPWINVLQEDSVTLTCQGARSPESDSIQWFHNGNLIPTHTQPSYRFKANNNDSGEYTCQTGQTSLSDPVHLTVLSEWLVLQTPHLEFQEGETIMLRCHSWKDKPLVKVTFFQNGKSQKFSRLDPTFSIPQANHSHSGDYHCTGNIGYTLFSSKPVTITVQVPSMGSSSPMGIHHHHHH

T2: Recombinant human FcγRIIb, 6xHis-tagged (human, UniProt P31994 46-217, limits assumed)
T2 construct: Captured through its 6xHis tag; also called huFcRIIb
T2 sequence: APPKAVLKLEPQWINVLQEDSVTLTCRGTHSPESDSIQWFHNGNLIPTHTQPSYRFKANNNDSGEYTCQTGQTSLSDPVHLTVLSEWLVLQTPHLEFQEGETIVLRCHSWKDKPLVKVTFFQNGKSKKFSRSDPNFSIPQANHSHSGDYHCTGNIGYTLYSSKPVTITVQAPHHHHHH

T3: Recombinant human FcγRIIa H131, 6xHis-tagged (human, UniProt P12318 36-218, limits assumed)
T3 construct: Captured through its 6xHis tag
T3 sequence: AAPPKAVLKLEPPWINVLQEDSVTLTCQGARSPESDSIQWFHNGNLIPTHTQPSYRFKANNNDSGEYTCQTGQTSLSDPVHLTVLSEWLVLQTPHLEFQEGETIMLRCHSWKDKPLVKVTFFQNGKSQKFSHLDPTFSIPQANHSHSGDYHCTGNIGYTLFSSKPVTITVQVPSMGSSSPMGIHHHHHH

T4: Recombinant rat FcRn (rat, UniProt P13599 23-298, limits assumed)
T4 construct: FcRn is normally a heterodimer with beta-2-microglobulin
T4 sequence (looked up) 1: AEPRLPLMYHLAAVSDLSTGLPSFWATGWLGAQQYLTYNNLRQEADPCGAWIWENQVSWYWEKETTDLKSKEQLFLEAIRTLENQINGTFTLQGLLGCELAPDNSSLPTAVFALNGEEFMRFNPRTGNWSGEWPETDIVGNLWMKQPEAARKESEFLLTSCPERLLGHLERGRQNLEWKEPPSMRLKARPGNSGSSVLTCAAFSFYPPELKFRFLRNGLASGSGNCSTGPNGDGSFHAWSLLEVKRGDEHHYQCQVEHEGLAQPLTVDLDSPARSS
T4 sequence (looked up) 2: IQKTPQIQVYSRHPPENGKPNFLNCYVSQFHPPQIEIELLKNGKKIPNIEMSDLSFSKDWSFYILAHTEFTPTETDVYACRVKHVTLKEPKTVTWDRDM


Legend:
[1] = target: T1, Recombinant human FcγRIIa R131, …; assay: Biacore SPR; His-tagged human FcγR captured on anti-6xHis antibody, DVD-Ig injected
Description: (§1) A CM5 chip (GE Healthcare, Pittsburgh, Pa.) with mouse anti-6×His antibodies (“6×His” disclosed as SEQ ID NO: 405) that were directly immobilized on the chip via amine coupling according to the GE Healthcare protocol to the density of 10000RU (all flow cells) was used for experiments. Human FcγRs were captured on flow cells 2, 3 and 4. Flow cell 1 was used as a reference surface. HBS-EP+ was used as the running buffer. […] The chip surfaces were regenerated with an injection of 10 mM glycine pH 1.5 at a flow rate of 100 μL/minute over all four flow cells after each cycle.

[2] = target: T5, Recombinant human FcγRIIIa F158, 6xHis-tagged (human, UniProt P08637 17-208, limits assumed); assay: as above
T5 construct: Captured through its 6xHis tag
Description: as §1

[3] = target: T2, Recombinant human FcγRIIb, 6xHis-tagged; assay: as above
Description: as §1

[4] = target: T3, Recombinant human FcγRIIa H131, …; assay: as above
Description: as §1

[5] = target: T6, Recombinant human FcγRIIIa V158, 6xHis-tagged (human, UniProt P08637 17-208, limits assumed); assay: Biacore SPR; His-tagged huFcγRIIIa 158V captured on anti-6xHis antibody, DVD-Ig injected; steady state fit
T6 construct: Captured through its 6xHis tag; also called huFcRIIIa 158V
Description: as §1
The binding of DVD-Ig molecules to FcRn from various species and the binding of DVD-Ig molecules to various FcγRs were characterized by Biacore using the method described in Example 1.2.

Recombinant rat FcRn = target: T4, Recombinant rat FcRn; assay: Biacore SPR; DVD-Ig immobilised by amine coupling, recombinant FcRn injected; 1:1 binding fit
Description: Human, cynomolgus, mouse, rat and rabbit recombinant FcRns were injected over all the flow cells at a flow rate of 50 μL/minute for 1 minute at a concentrations range of from 2.7 to 6000 nM (three fold serial dilution), followed by a 2 minute dissociation time. The surfaces were regenerated with an injection of 10 mM HCl at 100 μL/minute for 2 seconds followed by an injection of HBS-EP+, pH 7.4, at a flow rate of 50 μL/minute for 30 seconds over all four flow cells. Samples were prepared and run in two running buffer systems, pH 6.0 MES-EP+, and pH […]. Recombinant human FcγRIIIa V158 and rat and mouse FcRn data were fitted to 1:1 kinetic model. Recombinant human FcγRIIa R131 and FcγRIIa H131, FcγRIIIa F158, and recombinant human, cynomolgus and rabbit FcRn binding data were fitted to a steady state affinity model. Biacore T200 Evaluation Software version 2.0 was used to fit all the data.

T6 sequence (P08637 other isoform, or with tags, fused parts or gaps limits assumed): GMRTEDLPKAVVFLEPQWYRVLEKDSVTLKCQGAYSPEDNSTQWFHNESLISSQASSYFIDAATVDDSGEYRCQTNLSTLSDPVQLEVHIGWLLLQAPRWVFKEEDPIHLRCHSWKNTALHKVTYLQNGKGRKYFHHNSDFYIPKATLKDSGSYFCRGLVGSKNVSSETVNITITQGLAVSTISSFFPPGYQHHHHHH
T5 sequence (P08637 other isoform, or with tags, fused parts or gaps limits assumed): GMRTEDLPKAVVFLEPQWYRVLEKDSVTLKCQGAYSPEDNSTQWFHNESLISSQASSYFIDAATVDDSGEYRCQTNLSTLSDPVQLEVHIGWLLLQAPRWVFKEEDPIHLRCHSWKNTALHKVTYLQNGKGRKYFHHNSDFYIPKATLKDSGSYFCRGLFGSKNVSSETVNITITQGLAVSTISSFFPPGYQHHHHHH

Binder	binding result [1]	binding result [2]	binding result [3]	binding result [4]	Kd [5] [µM]	binding result (Recombinant rat FcRn)
4G8.3-GS-9E8.4(g) (PR-1572102), anti-VEGF-A/anti-PDGF-BB DVD-Ig, hu IgG1/k L234A L235A H435A (bispecific antibody, also called 4G8.3-GS(9)-9E8.4 (g); hu VEGF 4G8.3-GS-hu PDGF 9E8.4 (germline) [hu IgG1/k]; LALA H435A) heavy: EVQLVQSGSELKKPGASVKVSCKASGYTFTNYGMYWVRQAPGQGLEWMGWINTETGKPTYADDFKGRFVFSLDTSVSTAYLQISSLKAEDTAVYYCARTNYYYRSYIFYFDYWGQGTMVTVSSGGGGSGGGGSEVTLRESGPALVKPTQTLTLTCTFSGFSLSTYGMGVGWIRQPPGKALEWLANIWWDDDKYYNPSLKNRLTISKDTSKNQVVLTMTNMDPVDTATYYCARIESIGTTYSFDYWGQGTMVTVSSASTKGPSVFPLAPSSKSTSGGTAALGCLVKDYFPEPVTVSWNSGALTSGVHTFPAVLQSSGLYSLSSVVTVPSSSLGTQTYICNVNHKPSNTKVDKKVEPKSCDKTHTCPPCPAPEAAGGPSVFLFPPKPKDTLMISRTPEVTCVVVDVSHEDPEVKFNWYVDGVEVHNAKTKPREEQYNSTYRVVSVLTVLHQDWLNGKEYKCKVSNKALPAPIEKTISKAKGQPREPQVYTLPPSREEMTKNQVSLTCLVKGFYPSDIAVEWESNGQPENNYKTTPPVLDSDGSFFLYSKLTVDKSRWQQGNVFSCSVMHEALHNAYTQKSLSLSPGK light: DTVLTQSPATLSLSPGERATLSCRASESVSTHMHWYQQKPGQAPRLLIYGASNLESGVPARFSGSGSGTDFTLTISSLEPEDFAVYFCQQSWNDPFTFGQGTKLEIKRGGSGGGGSGEFVLTQSPGTLSLSPGERATLSCERSSGDIGDSYVSWYQQKPGQAPRLVIYADDQRPSGIPDRFSGSGSGTDFTLTISRLEPEDFAVYYCQSYDINIDIVFGGGTKVEIKRTVAAPSVFIFPPSDEQLKSGTASVVCLLNNFYPREAKVQWKVDNALQSGNSQESVTEQDSKDSTYSLSSTLTLSKADYEKHKVYACEVTHQGLSSPVTKSFNRGEC	no binding (tested: DVD-Ig 31.25 to 4000 nM)	no binding (tested: DVD-Ig 31.25 to 4000 nM)	no binding (tested: DVD-Ig 31.25 to 4000 nM)	no binding (tested: DVD-Ig 31.25 to 4000 nM)	7.4	no binding (tested: FcRn 2.7 to 6000 nM)
4G8.3-GS-9E8.4 (PR-1569574), anti-VEGF-A/anti-PDGF-BB DVD-Ig, hu IgG1/k mut(234,235) H435A (bispecific antibody, also called hVEGF 4G8.3-GS-hPDGF 9E8.4 [hu IgG1/k] mut(234, 235) H435A) heavy: EVQLVQSGSELKKPGASVKVSCKASGYTFTNYGMYWVRQAPGQGLEWMGWINTETGKPTYADDFKGRFVFSLDTSVSTAYLQISSLKAEDTAVYYCARTNYYYRSYIFYFDYWGQGTMVTVSSGGGGSGGGGSEVTLRESGPALVKPTQTLTLTCTFSGFSLSTYGMGVGWIRQPPGKALEWLANIWWDDDKYYNPSLKNRLTISKDTSKNQVVLTMTNMDPVDTATYYCARIESIGTTYSFDYWGQGTMVTVSSASTKGPSVFPLAPSSKSTSGGTAALGCLVKDYFPEPVTVSWNSGALTSGVHTFPAVLQSSGLYSLSSVVTVPSSSLGTQTYICNVNHKPSNTKVDKKVEPKSCDKTHTCPPCPAPEAAGGPSVFLFPPKPKDTLMISRTPEVTCVVVDVSHEDPEVKFNWYVDGVEVHNAKTKPREEQYNSTYRVVSVLTVLHQDWLNGKEYKCKVSNKALPAPIEKTISKAKGQPREPQVYTLPPSREEMTKNQVSLTCLVKGFYPSDIAVEWESNGQPENNYKTTPPVLDSDGSFFLYSKLTVDKSRWQQGNVFSCSVMHEALHNAYTQKSLSLSPGK light: DTVLTQSPATLSLSPGERATLSCRASESVSTHMHWYQQKPGQAPRLLIYGASNLESGVPARFSGSGSGTDFTLTISSLEPEDFAVYFCQQSWNDPFTFGQGTKLEIKRGGSGGGGSGEFVLTQSPGTLSLSPGERATLSCERSSGDIGDSYVSWYQQKPGQAPRLVIYADDQRPSGIPDRFSGSGSGTDFTLTISRLEPEDFAVYYCQSYDINIDIVFGGGTKVEIKGTVAAPSVFIFPPSDEQLKSGTASVVCLLNNFYPREAKVQWKVDNALQSGNSQESVTEQDSKDSTYSLSSTLTLSKADYEKHKVYACEVTHQGLSSPVTKSFNRGEC	no binding (tested: DVD-Ig 31.25 to 4000 nM)	no binding (tested: DVD-Ig 31.25 to 4000 nM)	no binding (tested: DVD-Ig 31.25 to 4000 nM)	no binding (tested: DVD-Ig 31.25 to 4000 nM)	16	no binding (tested: FcRn 2.7 to 6000 nM)

— patent US20170015742A1 (published 2017)
